Data reported in a protein production outcome set (Wang et al. 2014).

Assay: label from the status in PepcDB records
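Note: failed if final PepcDB status was selected cloned or expressed and not failed if soluble or beyond.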

Q: For “MPSEAFRRHRAYRENKLQPLVSVLICAYNVEKYFAQSLAAVVNQTWRNLDILIVDDGSTDGTLAIAQRFQEQDGRIRILAQPRNSGLIPSLNIGLDELAKSGGGGEYIARTDADDIAAPDWIEKIVGEMEKDRSIIAMGAWLEVLSEEKDGNRLARHHEHGKIWKKPTRHEDIADFFPFGNPIHNNTMIMRRSVIDGGLRYNTERDWAEDYQFWYDVSKLGRLAYYPEALVKYRLHANQVSSKYSIRQHEIAQGIQKTARNDFLQSMGFKTRFDSLEYRQIKAVAYELLEKHLPEEDFERARRFLYQCFKRTDTLPAGAWLDFAADGRMRRLFTLRQYFGILHRLLKNR”, which protein production is on record?
A: failed

Q: Which protein production does the source give for “MPSHTDENWELAIQTPAITDRSLAAGLAYAMGSRVNGISFDAATGLLMGKVRGTGPQPYSTSAKLVRKPSGWSCTVGICNCPVRKDCKHVAALLFTAEDHPTIRAQLLSQAPGIQTSRVGSGQQGGSARPAWEQALNRLITKPGTAPSAAGIPLALQFEVEEPAAHFSYTGRRDPMRSVRQLKARPVMMGAKGKWIRGDVSWNNLSYVSFRREFNEVHVEWLQTFLAAHGSSNGRQQPSGAMWLSLNDFAAKNLWTLLAEATKAGIPLIHSAGSEPVRVETQPAVVGLSLARLATDPDTAKHEAPDGGLQLAPSVTLGGEAVDPGSVGFLGKPANGIFFTHSGDSLPGVPQQKNLITLAPMEGGISDELLEFVMDGDTLQIPAEDESRFLTSFYPKLRQSTPVQAADESVELPTLAVPTLSLLANYGNDHKVRLHWEWHYKSGTLVTSQPLWRHPDDRGYRDDLEEARILESLGRPWDVVPALAESATGGWGAPRIAASAELSGLDTLAFTEEVLPALKDLPDVVVETSGDIADYREAAEAPVVSISTKETASGDWFDLGIVITLEGEPVSFAAVFSALAAGMSRMLLPSGAYFSLDLPELHQLRALIDEARSLQDNPDNKDGTLQISRFQAGLWDELAQLGIVDEQAAAWREAVGGLLDDGVTGLPLPAGLNAELRPYQLEGFNWLSFLYKHSLGGVLADDMGLGKTVQAIALICAAKDLAAETAAAAQGDASEVVPRAPFLVVAPTSVVSNWAAEAQRFAPGLVVRTVGETFAKSGMAPAEALAGADVVITSYALFRIDYDAYASFQWAGLMLDEAQFVKNHQSKAYQCARKLPARFKLAITGTPLENNLMEFWALTSIVAPGLFPSPKRFAENYQKPVEKNGDSAQLGKLRRRVRPLMMRRTKEQVIKDLPPKQEQILEVVLNPRHQKVYQTHLQRERQKILGLIDDVNKNRFTIFQSLTLLRQLSLDASLVDSSLSGVRSSKLDVLFEQLEDLISEGHRALIFSQFTGFLGKVRERLDAEGVEYCYLDGSTRNRGDVVSEFKNGAAPVFLISLKAGGFGLNLTEADYVFLLDPWWNPASEAQAVDRTHRIGQARNVMVYRLVAKDTIEEKVMALKAKKSQLFADVMEGDALAGGSLTADDLAALFAE” here?
A: failed

Q: Which protein production does the source give for “MPSPSGSSTLSKPAPRFASIGSPYFGIMLAIMAVVLILSNIGASKGVVLGPIITDGGFFLFPLAYILGDVMSEVYGFKVARKAIITSFALSVFASLCYWIIIVLPGFNDEYGTAKQAAIEGALGPVPLIVLGSLLAFLAGQTINSWILVKMKARTGEKSLWARLMGSSVVGEFVDTLIFCSIAASVIGITDFGSFLNYVLVGFVYKTAVEFLFVPVTVLVVGWIKKREPSYGVVAA” here?
A: failed

Q: With “MPSSGQLYGDEERELTPTPAIPEEGVYEVKYSNRRTNVVRLLPNGFQERKLRRLANLSAKLFNEVNFERRQQFFHEGKVNIEETYKKYYEKYKVILGVNAQAVLNKNNEAWSSFFSLLKLKKEGKLPPHMNHVSPPGYWKDREAGKRKQILVIRQDRYKVDAENHKLILKDFDMEIDFIGRLKWYGKQGRLEIIFDETRNAWYAHIPIEVGVEETKAGKKSKHVVKGERKSIQISKPKGNKVASIDLGINVIASVVVNDGTWLLYKGVRTKEDYFYFQKRIAEVQSLADRTRNIGEYDAYLELLREKRRLFKKLTRRLTHLYRNLASHLIETLYELGVSTIYLGYPFNIVQEKGNKFTVNMWSYRKLMESIELKAQEYGMKVFEVVEYNTSKYCAYHDVEVKRNPRGVINCPLGHKLHSDLNGALNILKKALGVIVNAVKKPLSFIVDHNRVAPIKGCNPLEHHHHHH” as the sequence, how does the protein production read?
A: failed

Q: Which protein production does the source give for “MPSSTTVPTRRGLVSGPSSSDAHGDMPAVSVIMNCLNCERDLAEAIGSVFAQTFDDWEIVFWDNGSTDRSAEIAQGFGERVRYFRATETVPLGAARNLAIAKARGEFIAFLDCDDVWLPEKLERQVALFRANPRVGLVCTDTVMFTGAKDLNRLFEHAHPARGHVFRELMTTQWISMSSAVIRRNALDGMDHWFDESLNVCEEADVFYRIAWDWELDHVDAPLTRWRVHGANTTFRKFGQFAEETLRILDKHRAMYPGYDERYADLVALLRRRAAFQRAVALWREGRGAEARATIAPFDASPKFRLFRLATYLPGALFDPLARLYFALPAFLRRLEHHHHHH” here?
A: failed

Q: With “MPTFLAALLTGLFNLCKSKLGYFVATAFVWLGINWGSYHFVISPLVEQLYTYVDSVGTAGGRFGELALRALGLLNFDRALTMIISAYVSRFAMLNGRLYLFKRGYGVAPPASPKHEPFIPPAG” as the sequence, how does the protein production read?
A: failed

Q: Which protein production does the source give for “MPTINQLIRYGRKPKKKKSKAPALQGNPQKRGVCIKVSTMTPKKPNSALRKIARVRLSNGIEVTAYIPGIGHNLQEHSVVLVRGGRVKDLPGVRYKIIRGALDAAGVEGRRQSRSKYGAKRPKDQKK” here?
A: failed

Q: Which protein production does the source give for “MPTKTLRIPTTDGQADAFAAFPDHSERYPGVLMYADGFGIRPVLREMALELAGHGYYVLVPNSFYRHGPAPLVELPEYIGEGIRPAVFAQLMPLIEAHTAERVLSDADAYLRFLTTQPEVGAGPVAVTGYCIGGLYAMRTAAAHPDQVAAVAAFHGPVGVDGANLFSKLTAQVHLGHAEGDMTPEALGELNQALDAAGVGYTSEIYPGTIHGFTMSDTDAYSAFGLKRHWDRLLPLLDRTL” here?
A: failed

Q: With “MPTKTYSEEFKRDAVALYENSDGASLQQIANDLGINRVTLKNWIIKYGSNHNVQGTTPSAAVSEAEQIRQLKKENALQRARTRHPAESCLEHHHHHH” as the sequence, how does the protein production read?
A: not failed

Q: Which protein production does the source give for “MPTLGFRFRAHTDEQTLRALKAQLKLACEVYNTLRWADIYFYQRDGKGLTQTELRQLALDLRKQDDEYKQVYSQVVQQIADRYYEARQRFFEGLARFPKEKKPHKYYSLVYPQYGWKILQVREIRKGSKKKLITLKLSNLGVFKVIVHRDFPLDKVKRVVVKLTRSERIYITFVVEGYEFPKLPNTGKVVAIDVGVEKLLVTSDSEYFPNLRPLEKALWKVKHLHRELSRKKFLSNNWFKAKVKLARAYEHLKNLRTDLYMKLGKWFAEHYDVVVMEDIHVKQLIGKSLRSLRRRLSDVAFSELRDLIKYQLEKYGKKLILVNPAYTSKTCARCGYVKEDLSLSDRVFVCSNCGWIADRDYNASLNILRGSGSERSLVPVELRPLPVPALRYWHGRAVKLEHHHHHH” here?
A: failed

Q: With “MPTLLNIQEFNKLNMNTILHITKRQQWEQAKNVGSYHADSLDTEGFIHSSKSIQILKVANRFFHHQTELVLLFIDSDQVKPEIRYEAADGDLFPHIYGELNLDAVYQVIDFEPGEDGLFEVPPEVVSLG” as the sequence, how does the protein production read?
A: failed

Q: For “MPTPADDLVVIGKIVSVYGIRGEVKVYSFTDPLDNLLDYRRWTLRRDGEIRQAELVRGRLHGKVLAAKLKGLDDREEARTFTGYEICIPRSELPSLEEGEYYWHQLEGLKVIDQGRQLLGVIDHLLETGANDVMVVKPCAGSLDDRERLLPYTGQCVLSIDLAAGEMRVDWDADF”, which protein production is on record?
A: not failed

Q: With “MPTTSRPALDVKGGTSPAKEDANQEMSSVAYSNLAVKDRKAVAILHYPGVASNGTKASGAPTSSSGSPIGSPTTTPPTKPPSFNLHPAPHLLASMQLQKLNSQYQGMAAATPGQPGEAGPLQNWDFGAQAGGAESLSPSAGAQSPAIIDSDPVDEEVLMSLVVELGLDRANELPELWLGQNEFDFTADFPSSC” as the sequence, how does the protein production read?
A: failed

Q: With “MPTVAPTTVKPTTIPKETTTIAFTTDSSIEKPFGLDVSQASVGYVNIVWGRGTIDCYNVYVDGERRRTGISAQSLKLPVYTEGTHTIAITTVVGTRESEKLEVQVAITGTGEKETEPETCPEELKPQLKKNVPLRDDRIAIELNNKTNGKYSDSEIYWCILGNNENNQLCYMDKDGNMIPASESLNTVEVNGTKYANIYHTLAESDHVYAPTIRSGRMYLSYGKPVYVKFNGSTGYAGPDLNNPGDVNANTLFEFAEFTIEGKNYWGNTTRVDYFCFPMVTRLIGGSLYGGYDNVVGDIGTRDEIFTAFKNEVPNEYKSLVRDDRIIAPCKSTFNVGQDNGNYFDNYINEFWNKYANEDLRFSSESGSFVGRVVGNQMRFTREGDSTVYYVDKPNTQEVLEGKGAFDRGNGVEKAIEAQLCAAFNRGVATEPDKWYTPSQYYKNSVANFYAGFFHEHSVLGKAYGFCYDDVNDQSTLLQYNKADALVIDLKW” as the sequence, how does the protein production read?
A: failed

Q: With “MPVAEQPYHHGSLRRVLLARAESTLEKDGVDGLSLRQLAREAGVSHAAPSKHFRDRQALLDALAESGFLRLTAALERAVEEAESHARARFAALAGAYVSFALAHRELLALMYGNKHAPGAASQVVEAGHASMDLTVRIVTEAQAAGDIGPGDASRIALVAFATFHGIATLAAGGMLDGAPVDEVVTAASDTFWRGLAQA” as the sequence, how does the protein production read?
A: not failed

Q: Which protein production does the source give for “MPVAKKYFEIRWHGRAGQGAKSASQMLAEAALEAGKYVQAFPEYGAERTGAPMRAFNRIGDEYIRVRSAVENPDVVVVIDETLLSPAIVEGLSEDGILLVNTVKDFEFVRKKTGFNGKICVVDATDIALQEIKRGIPNTPMLGALVRVTGIVPLEAIEKRIEKMFGKKFPQEVIDANKRALRRGYEEVKCSE” here?
A: not failed

Q: Which protein production does the source give for “MPVAVVANPKGGVGKTTLATNLAGYFAARDHAVMLGDTDRQQSSREWLALRPATARPIHTWDISADHIAKPPKGTTHVVLDTPAGLHGWRLADLIRLAGHVIVPLQPSMFDILATQAFLCKLADEKPVRHGEAKVGVVGMRVDMRTRAAEQLQRFVQGLQIPILGYLRDTQNYVQLAAHGLTLWDVAPSRVARDVEQWRGILDWMAPGGITASPDSM” here?
A: failed

Q: With “MPVCILLLRFRDDVHNERFYTLVGIFIVGALCLMILGGTFFYIEYKRAQKQTFVMFFKGSLKGLVTTAPVTYRGVKIGEVKVIEITENKEHSKVLIPVYVQFFVERTYGFSQDPIHLLIDNGYVANITKPNLLTGVAEIELIKPTPAVKYKQTYYHSYPVFPTHNSAEKYTSMEEAFEAAKKAFEDVSELVRSKEIQDTLEAIQKVSENLGQLASSLNQDVPSVVAYLNQSLKQITSAAYSTQNLTDYLSRYPESLLRGKRLEHHHHHH” as the sequence, how does the protein production read?
A: failed

Q: With “MPVGGLLPLFSSPGGGGLGSGLGGGLGGGRKGSGPAAFRLTEKFVLLLVFSAFITLCFGAIFFLPDSSKLLSGVLFHSNPALQPPAEHKPGLGARAEDAAEGRVRHREEGAPGDPGAGLEDNLARIRENHERALREAKETLQKLPEEIQRDILLEKEKVAQDQLRDKDLFRGLPKVDFLPPVGVENREPADATIREKRAKIKEMMTHAWNNYKRYAWGLNELKPISKEGHSSSLFGNIKGATIVDALDTLFIMGMKTEFQEAKSWIKKYLDFNVNAEVSVFEVNIRFVGGLLSAYYLSGEEIFRKKAVELGVKLLPAFHTPSGIPWALLNMKSGIGRNWPWASGGSSILAEFGTLHLEFMHLSHLSGDPVFAEKVMKIRTVLNKLDKPEGLYPNYLNPSSGQWGQHHVSVGGLGDSFYEYLLKAWLMSDKTDLEAKKMYFDAVQAIETHLIRKSSGGLTYIAEWKGGLLEHKMGHLTCFAGGMFALGADGAPEARAQHYLELGAEIARTCHESYNRTYVKLGPEAFRFDGGVEAIATRQNEKYYILRPEVIETYMYMWRLTHDPKYRTWAWEAVEALESHCRVNGGYSGLRDVYIARESYDDVQQSFFLAETLKYLYLIFSDDDLLPLEHWIFNTEAHPFPILREQKKEIDGKEK” as the sequence, how does the protein production read?
A: not failed

Q: For “MPVKKLKQFLDSHKIKYLSIAHSPAYTAQEIAASAHVSGKQLAKTVIIKMDGRLAMVVLPASDHITFMKLKEAIGTSDLELATESEFEGKFAECDVGAMPPFGNLYGLPVLVSTKLSAQDNILFNAGSHSELMQLSFGDFEKLVKPTLVTL”, which protein production is on record?
A: not failed
